Source: patent US20100016697

Legend:
[1] = test system: LTBP-1 fluorogenic peptide SCJJ-1
[2] = test system: MT1-MMP specific fluorogenic substrate MCA-Pro-Leu-Ala-Cys(p-OmeBz)-Trp-Ala-Arg(Dpa)-NH2

Sequence of MMP-8 (Calbiochem) (chain, as listed by the source): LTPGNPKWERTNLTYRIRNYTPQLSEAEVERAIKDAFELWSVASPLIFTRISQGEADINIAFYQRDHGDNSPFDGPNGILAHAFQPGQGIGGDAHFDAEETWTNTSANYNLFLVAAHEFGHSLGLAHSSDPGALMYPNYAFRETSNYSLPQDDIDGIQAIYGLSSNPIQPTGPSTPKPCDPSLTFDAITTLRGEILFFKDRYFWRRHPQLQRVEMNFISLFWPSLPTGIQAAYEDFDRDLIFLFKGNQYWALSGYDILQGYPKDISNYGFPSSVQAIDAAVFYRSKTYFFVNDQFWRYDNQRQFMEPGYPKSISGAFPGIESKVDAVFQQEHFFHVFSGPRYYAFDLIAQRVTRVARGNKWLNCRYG
Sequence of MMP-9 catalytic domain (part of the MMP-2/-9 catalytic domain cocktail) (chain, as listed by the source): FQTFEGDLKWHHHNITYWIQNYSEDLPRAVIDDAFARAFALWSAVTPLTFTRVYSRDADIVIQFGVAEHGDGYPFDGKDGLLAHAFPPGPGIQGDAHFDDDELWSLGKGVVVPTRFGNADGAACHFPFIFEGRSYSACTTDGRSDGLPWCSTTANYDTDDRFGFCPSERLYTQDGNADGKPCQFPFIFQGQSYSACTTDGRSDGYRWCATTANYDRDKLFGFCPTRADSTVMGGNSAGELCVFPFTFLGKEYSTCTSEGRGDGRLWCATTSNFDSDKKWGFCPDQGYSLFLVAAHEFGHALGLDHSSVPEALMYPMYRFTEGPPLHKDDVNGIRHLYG
Sequence of MMP-2 catalytic domain (part of the MMP-2/-9 catalytic domain cocktail) (chain, as listed by the source): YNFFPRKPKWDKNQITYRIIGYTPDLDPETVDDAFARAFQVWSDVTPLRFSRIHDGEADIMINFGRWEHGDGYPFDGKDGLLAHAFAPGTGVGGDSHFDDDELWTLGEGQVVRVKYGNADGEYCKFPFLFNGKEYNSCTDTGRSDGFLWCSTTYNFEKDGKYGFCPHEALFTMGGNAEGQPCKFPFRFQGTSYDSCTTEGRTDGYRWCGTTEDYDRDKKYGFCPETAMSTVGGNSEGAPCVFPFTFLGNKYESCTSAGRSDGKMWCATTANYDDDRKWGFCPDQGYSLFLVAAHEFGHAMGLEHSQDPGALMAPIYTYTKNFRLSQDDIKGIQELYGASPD
Sequence of MMP-9 (part of MMP-2/9, Chemicon) (chain, as listed by the source): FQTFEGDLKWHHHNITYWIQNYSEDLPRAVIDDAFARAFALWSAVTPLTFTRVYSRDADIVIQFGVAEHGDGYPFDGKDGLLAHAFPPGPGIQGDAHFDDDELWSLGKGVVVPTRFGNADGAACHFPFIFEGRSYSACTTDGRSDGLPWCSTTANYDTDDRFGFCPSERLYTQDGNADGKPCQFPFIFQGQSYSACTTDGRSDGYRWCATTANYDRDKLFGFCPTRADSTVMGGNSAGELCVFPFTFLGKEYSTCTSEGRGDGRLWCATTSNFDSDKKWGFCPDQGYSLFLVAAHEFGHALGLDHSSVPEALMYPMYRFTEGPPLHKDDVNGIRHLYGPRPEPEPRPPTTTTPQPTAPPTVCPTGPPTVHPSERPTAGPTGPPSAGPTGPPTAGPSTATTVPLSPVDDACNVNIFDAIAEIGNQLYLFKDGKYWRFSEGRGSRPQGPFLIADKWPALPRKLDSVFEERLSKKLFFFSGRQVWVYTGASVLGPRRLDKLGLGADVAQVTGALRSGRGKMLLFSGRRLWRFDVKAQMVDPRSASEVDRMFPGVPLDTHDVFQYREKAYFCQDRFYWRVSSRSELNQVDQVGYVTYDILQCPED

Substance | fluorescent emission from the LTBP-1 substrate [1] | fluorescence emission (cleavage of the quenched fluorogenic substrate) [2]
MMP-2 catalytic domain (part of the MMP-2/-9 catalytic domain cocktail) | Incubation with an MMP-2/-9 catalytic domain cocktail (10 ug/mL) caused no fluorescent emission from the LTBP-1 substrate. | 
MMP-8 (Calbiochem) |  | Incubation with MMP-2/9, MMP-8, or ADAM-10 and 17 alone failed to cause fluorescence emission from the MT1-MMP substrate.
MMP-9 (part of MMP-2/9, Chemicon) |  | Incubation with MMP-2/9, MMP-8, or ADAM-10 and 17 alone failed to cause fluorescence emission from the MT1-MMP substrate.
MMP-9 catalytic domain (part of the MMP-2/-9 catalytic domain cocktail) | Incubation with an MMP-2/-9 catalytic domain cocktail (10 ug/mL) caused no fluorescent emission from the LTBP-1 substrate. | 
